Patent publication US20240360228A1 (BIOLEGEND, published 2024)

Legend:
[1] = target: T1, human CCR8 (human, UniProt P51685 1-355); experiment: flow blocking, PBMC CCR8+CD4+; competitor PE-AB1
T1 construct: Native CCR8 on human PBMC (CCR8+ CD3+ or CCR8+ CD4+ lymphocytes); also called chemokine (C-C motif) receptor 8
Experimental: (§1) For blocking studies, 100 μL of the cell suspension were incubated with 10 μg purified isotype control, AB1, AB2, AB3, AB4, AB5, AB8, AB9, AB10, AB11, AB12, AB13, AB14, AB15, and Commercial ABI antibodies, or isotype control, as blocking agents.
(§2) After incubation with the blocking agent, the cells were incubated with 0.25 μg of the indicated PE-conjugated antibody plus anti-human CD4 APC or anti-human CD3 for another 15 minutes in the dark and then washed 2 times with Cell Staining Buffer, and acquired in a FACSCanto II flow cytometer (BD Biosciences); the data was analyzed using FCS Express (De Novo Software); MFI correspond to the CCR8+ CD4+ lymphocytes or CCR8+ CD3+ lymphocytes.
(§3) Percentage original MFI was calculated by dividing the MFI of samples blocked with AB1, AB2, AB3, AB4, AB5, AB6, AB7, AB8, AB9, AB10, AB11, AB12, AB13, AB14, AB15, and Commercial ABI antibodies, by the MFI of samples blocked with the corresponding isotype control. This value was subtracted from 100 to get a blocking percentage. The formula is shown below: […]

[2] = target: T1, human CCR8; experiment: flow blocking, PBMC CCR8+CD4+; competitor PE-AB2
Experimental: as §1, §2, §3

[3] = target: T1, human CCR8; experiment: flow blocking, PBMC CCR8+CD4+; competitor PE-AB3
Experimental: as §1, §2, §3

[4] = target: T1, human CCR8; experiment: flow blocking, PBMC CCR8+CD4+; competitor PE-AB4
Experimental: as §1, §2, §3

[5] = target: T1, human CCR8; experiment: flow blocking, PBMC CCR8+CD4+; competitor PE-AB5
Experimental: as §1, §2, §3

[6] = target: T1, human CCR8; experiment: flow blocking, PBMC CCR8+CD4+; competitor PE-AB6
Experimental: as §1, §2

[7] = target: T1, human CCR8; experiment: flow blocking, PBMC CCR8+CD4+; competitor PE-433H
Experimental: as §1, §2

[8] = target: T1, human CCR8; experiment: flow blocking, PBMC CCR8+CD4+; competitor PE-AB10
Experimental: as §1, §2, §3

[9] = target: T1, human CCR8; experiment: flow blocking, PBMC CCR8+CD4+; competitor PE-AB11
Experimental: as §1, §2, §3

[10] = target: T1, human CCR8; experiment: flow blocking, PBMC CCR8+CD4+; competitor PE-AB12
Experimental: as §1, §2, §3

[11] = target: T1, human CCR8; experiment: flow blocking, PBMC CCR8+CD4+; competitor PE-AB13
Experimental: as §1, §2

[12] = target: T1, human CCR8; experiment: flow blocking, PBMC CCR8+CD4+; competitor PE-AB14
Experimental: as §1, §2

[13] = target: T1, human CCR8; experiment: flow blocking, PBMC CCR8+CD4+; competitor PE-AB15
Experimental: as §1, §2, §3

T1 sequence (P51685 whole entry): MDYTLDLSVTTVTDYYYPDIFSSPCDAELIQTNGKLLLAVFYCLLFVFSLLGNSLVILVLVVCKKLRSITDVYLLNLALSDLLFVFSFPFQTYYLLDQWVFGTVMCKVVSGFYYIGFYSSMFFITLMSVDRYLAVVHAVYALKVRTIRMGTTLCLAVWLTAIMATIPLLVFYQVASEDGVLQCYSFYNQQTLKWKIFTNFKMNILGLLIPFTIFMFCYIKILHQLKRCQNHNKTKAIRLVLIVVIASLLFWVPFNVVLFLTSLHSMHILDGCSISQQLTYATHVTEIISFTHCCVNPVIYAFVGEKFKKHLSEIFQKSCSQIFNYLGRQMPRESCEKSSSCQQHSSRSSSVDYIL

Binder | % Blocking [1] [%] | % Positive cells [1] [%] | % Blocking [2] [%] | % Positive cells [2] [%] | % Blocking [3] [%] | % Positive cells [3] [%] | % Blocking [4] [%] | % Positive cells [4] [%] | % Blocking [5] [%] | % Positive cells [5] [%] | % Blocking [6] [%] | % Positive cells [6] [%] | % Blocking [7] [%] | % Positive cells [7] [%] | % Blocking [8] [%] | % Positive cells [8] [%] | % Blocking [9] [%] | % Positive cells [9] [%] | % Blocking [10] [%] | % Positive cells [10] [%] | also measured
AB1 (antibody, V domains shown, Hybridoma monoclonal (mouse or rat); Same VH/VL entries as AB2; also called antibody 1; clone 1) VH: QVQLKESGPGLVKPSETLSLTCTVSGFSLTSYHISWVRQPPGKGLEWMGVIWGDGSKTYNSALKSRLSISRDTSKSQVFLKMRSLKTEDTATYYCARGGDSGFAYWGQGTLVTVSS VL: DIQMTQSPASLSASLEEIVTITCQASQDIGNWLSWYQQKPGKSPQLLIYGTTNLADGVPSRFSGSRSGTQYSLKISRLQVEDIGIYYCLQAYSVPLTFGSGTKLEIK | 98.7 | 0.02 | 98.2 | 0.03 | 97.1 | 0.05 | 96.1 | 0.07 | 89.6 | 0.21 | 86.6 | 0.27 | 14.8 | 1.5 | 3.38 | 1.43 | -5.61 | 2.07 | -2.78 | 1.85 | % Blocking [11]: 10.1%; % Positive cells [11]: 1.78%; % Blocking [12]: 1.54%; % Positive cells [12]: 1.28%; % Blocking [13]: -30.2%; % Positive cells [13]: 1.68%
AB3 (antibody, V domains shown, Hybridoma monoclonal; also called antibody 3; clone 3) VH: QVQLKESGPGLVKPSETLSLTCTVSGFSLTSYHISWVRQPPGKGLEWMGVIWGDGKTTYNSALKSRLSISRDTSKSQVFLKMNSLKTEDTATYYCARGGDSGFAYWGQGTLVTVSS VL: DIQMTQSPASLSASLEEIVTITCQASQDIGNWLSWYQQKPGKSPQLLIYGTTNLADGVPSRFSGSRSGTQYSLKISRLQVEDIGIYYCLQAYSVPLTFGSGTKLEIK | 97.4 | 0.04 | 98.8 | 0.02 | 100 | 0 | 93.3 | 0.12 | 85.2 | 0.3 | 84.7 | 0.31 | 7.39 | 1.63 | -9.46 | 1.62 | 4.59 | 1.87 | 1.67 | 1.77 | % Blocking [11]: 21.2%; % Positive cells [11]: 1.56%; % Blocking [12]: -12.3%; % Positive cells [12]: 1.46%; % Blocking [13]: -7.75%; % Positive cells [13]: 1.39%
AB14 (antibody, V domains shown, Hybridoma monoclonal; Same VH/VL entries as AB15; also called antibody 14; clone 14) VH: EVQLVESGGGLVQPKGSLKLSCAASGFTFNTYAMNWVRQAPGKGLEWVARIRSKSNNYATYYVDSVKDRFTISRDDSQSMLYLQINNLKTEDTAMYYCVRGRELGPYSAMDYWGQGTSVTVSS VL: DIVMTQAAPSVPVTPGESVSISCRSSKSLLHSNGNTYLYWFLQRPGQSPQLLIYRMSNLASGVPDRFSGSGSGTAFTLRISRVEAEDVGLYYCMQHLEYPFTFGGGTKLEIK | -25.2 | 1.94 | -10.4 | 1.81 | -27.5 | 2.18 | -10.1 | 1.96 | 6.93 | 1.88 | -3.47 | 2.09 | 22.7 | 1.36 | 96 | 0.06 | 98.5 | 0.03 | 99.4 | 0.01 | % Blocking [11]: 96%; % Positive cells [11]: 0.08%; % Blocking [12]: 98.5%; % Positive cells [12]: 0.02%; % Blocking [13]: 97.7%; % Positive cells [13]: 0.03%

More lines, main results first:

% Blocking [1] [%] | % Positive cells [1] [%] | % Blocking [2] [%] | % Positive cells [2] [%] | % Blocking [3] [%] | % Positive cells [3] [%] | % Blocking [4] [%] | % Positive cells [4] [%] | % Blocking [5] [%] | % Positive cells [5] [%] | % Blocking [6] [%] | % Positive cells [6] [%] | % Blocking [7] [%] | % Positive cells [7] [%] | % Blocking [8] [%] | % Positive cells [8] [%] | % Blocking [9] [%] | % Positive cells [9] [%] | % Blocking [10] [%] | % Positive cells [10] [%] | Binder | also measured
100 | 0 | 98.8 | 0.02 | 98.2 | 0.03 | 94.9 | 0.09 | 87.1 | 0.26 | 87.1 | 0.26 | 1.14 | 1.74 | 0.68 | 1.47 | 4.59 | 1.87 | 1.11 | 1.78 | AB4 (antibody, V domains shown, Hybridoma monoclonal; also called antibody 4; clone 4) VH: QVQLKESGPGLVKPSETLSLTCTVSGFSLTGYHVSWVRQPPGKGLEWMGVIWGDGRTTYNSALKSRLSISRDTSKSQVFLKMSSLKTEDTATYYCARGGDSGFAYWGQGTLVTVSS VL: DIQMTQSPASLSASLEEIVTITCQASQDIGNWLSWYQQKPGKSPQLLIYGATSLADGVPSRFSGSRSGTQFSLKISRLQVEDIGIYYCLQAYIVPLTFGSGTKLESK | % Blocking [11]: 21.7%; % Positive cells [11]: 1.55%; % Blocking [12]: -15.4%; % Positive cells [12]: 1.5%; % Blocking [13]: -33.3%; % Positive cells [13]: 1.72%
-38.7 | 2.15 | -28.1 | 2.1 | -33.3 | 2.28 | -1.69 | 1.81 | -17.8 | 2.38 | -23.8 | 2.5 | 21.6 | 1.38 | 93.2 | 0.1 | 85.2 | 0.29 | 99.4 | 0.01 | AB15 (antibody, V domains shown, Hybridoma monoclonal; Same VH/VL entries as AB14; also called antibody 15; clone 15) VH: EVQLVESGGGLVQPKGSLKLSCAASGFTFNTYAMNWVRQAPGKGLEWVARIRSKSNNYATYYVDSVKDRFTISRDDSQSMLYLQINNLKTEDTAMYYCVRGRELGPYSAMDYWGQGTSVTVSS VL: DIVMTQAAPSVPVTPGESVSISCRSSKSLLHSNGNTYLYWFLQRPGQSPQLLIYRMSNLASGVPDRFSGSGSGTAFTLRISRVEAEDVGLYYCMQHLEYPFTFGGGTKLEIK | % Blocking [11]: 91.9%; % Positive cells [11]: 0.16%; % Blocking [12]: 99.2%; % Positive cells [12]: 0.01%; % Blocking [13]: 93.8%; % Positive cells [13]: 0.08%
-29.7 | 2.01 | -32.9 | 2.18 | -34.5 | 2.3 | -33.1 | 2.37 | -2.48 | 2.07 | -15.3 | 2.33 | 60.2 | 0.7 | 87.8 | 0.18 | 99 | 0.02 | 99.4 | 0.01 | AB12 (antibody, V domains shown, Hybridoma monoclonal; also called antibody 12; clone 12) VH: EVQLVESGGGLVQPKGSLKLSCAASGFAFNTYAMNWVRQAPGKGLEWIARLRSKSNFYATYYADSVKDRFTISRDDSQSMLYLQMNNLKTEDTAVYYCVRGRELGPSYAMDYWGQGTSVTVSS VL: DIVMTQAAPSVPVTPGESVSISCRSSKSLLHSNGNTYLYWFLQRPGQSPQLLIYRMSNLASGVPDRFSGSGSGTAFTLRISRVEAEDVGVYYCMQHLEYPYTFGGGTKLEIK | % Blocking [11]: 98.5%; % Positive cells [11]: 0.03%; % Blocking [12]: 100%; % Positive cells [12]: 0%; % Blocking [13]: 94.6%; % Positive cells [13]: 0.07%
